Experimental findings from article PMC8666675, “Structural basis of RNA polymerase recycling by the Swi2/Snf2 family of ATPase RapA in Escherichia coli” (The Journal of Biological Chemistry, 2021) are described below.

In one assay the target is T1, E. coli RNAP β subunit (E. coli, UniProt P0A8V2 1-1342).
T1 construct: RNA polymerase β subunit, E. coli; Stood in the assay as a subunit of the core enzyme m2, not alone; source: E. coli BL21(DE3), pVS10, purified as part of the RNAP core enzyme
Nature of the assay: cryo-EM structure; EC-RapA: 4 μM RNAP core enzyme with DNA/RNA scaffold, then 5 μM RapA, 22 °C, storage buffer (10 mM Hepes pH 7.5, 50 mM NaCl, 0.1 mM EDTA, 5 mM DTT); gel filtration; 1 mM AMPPNP and CMPCPP; BS3 cross-linked; 3.3 Å. The settings on record: both partners purified.

In the next assay the target is T2, E. coli RNAP β′ subunit (E. coli, UniProt P0A8T7 1-1407).
T2 construct: RNA polymerase β′ subunit, E. coli; Stood in the assay as a subunit of the core enzyme m2, not alone; source: E. coli BL21(DE3), pVS10, purified as part of the RNAP core enzyme
T2 sequence (P0A8T7 whole entry): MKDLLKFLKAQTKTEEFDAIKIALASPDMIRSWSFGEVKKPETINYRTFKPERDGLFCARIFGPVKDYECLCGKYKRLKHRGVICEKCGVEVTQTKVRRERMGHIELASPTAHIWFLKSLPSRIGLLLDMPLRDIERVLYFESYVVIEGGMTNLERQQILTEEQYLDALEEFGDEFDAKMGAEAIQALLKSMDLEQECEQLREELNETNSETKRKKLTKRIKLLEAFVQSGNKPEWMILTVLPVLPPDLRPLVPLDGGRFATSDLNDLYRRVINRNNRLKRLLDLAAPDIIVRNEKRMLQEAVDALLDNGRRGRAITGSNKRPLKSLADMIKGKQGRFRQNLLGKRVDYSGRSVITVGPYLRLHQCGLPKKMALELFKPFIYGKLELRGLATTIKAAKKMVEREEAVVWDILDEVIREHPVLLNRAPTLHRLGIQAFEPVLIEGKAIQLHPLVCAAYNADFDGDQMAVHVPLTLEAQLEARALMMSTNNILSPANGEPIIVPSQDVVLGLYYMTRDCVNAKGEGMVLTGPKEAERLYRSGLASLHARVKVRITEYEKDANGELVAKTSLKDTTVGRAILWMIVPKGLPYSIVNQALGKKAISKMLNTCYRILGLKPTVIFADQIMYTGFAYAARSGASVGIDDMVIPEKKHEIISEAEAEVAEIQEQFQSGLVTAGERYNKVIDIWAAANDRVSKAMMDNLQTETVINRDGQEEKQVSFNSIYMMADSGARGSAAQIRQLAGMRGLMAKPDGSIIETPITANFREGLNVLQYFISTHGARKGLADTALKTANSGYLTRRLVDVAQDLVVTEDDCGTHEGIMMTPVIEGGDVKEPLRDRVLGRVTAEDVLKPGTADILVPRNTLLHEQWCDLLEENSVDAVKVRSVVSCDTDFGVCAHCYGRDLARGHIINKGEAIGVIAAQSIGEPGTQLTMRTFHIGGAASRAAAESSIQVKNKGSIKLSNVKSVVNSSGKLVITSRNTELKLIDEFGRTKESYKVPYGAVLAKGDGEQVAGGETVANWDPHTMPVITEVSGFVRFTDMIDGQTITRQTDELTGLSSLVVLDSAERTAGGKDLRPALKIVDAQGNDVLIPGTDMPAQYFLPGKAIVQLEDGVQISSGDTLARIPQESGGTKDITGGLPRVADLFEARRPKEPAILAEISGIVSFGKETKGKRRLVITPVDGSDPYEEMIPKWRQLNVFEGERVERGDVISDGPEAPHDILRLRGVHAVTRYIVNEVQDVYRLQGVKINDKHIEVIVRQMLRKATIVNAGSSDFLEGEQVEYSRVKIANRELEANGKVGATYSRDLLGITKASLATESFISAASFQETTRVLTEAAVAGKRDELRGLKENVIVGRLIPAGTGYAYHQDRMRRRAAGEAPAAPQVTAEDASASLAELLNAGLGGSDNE
Described as above. The following applies: both partners purified.

T1 sequence (P0A8V2 whole entry): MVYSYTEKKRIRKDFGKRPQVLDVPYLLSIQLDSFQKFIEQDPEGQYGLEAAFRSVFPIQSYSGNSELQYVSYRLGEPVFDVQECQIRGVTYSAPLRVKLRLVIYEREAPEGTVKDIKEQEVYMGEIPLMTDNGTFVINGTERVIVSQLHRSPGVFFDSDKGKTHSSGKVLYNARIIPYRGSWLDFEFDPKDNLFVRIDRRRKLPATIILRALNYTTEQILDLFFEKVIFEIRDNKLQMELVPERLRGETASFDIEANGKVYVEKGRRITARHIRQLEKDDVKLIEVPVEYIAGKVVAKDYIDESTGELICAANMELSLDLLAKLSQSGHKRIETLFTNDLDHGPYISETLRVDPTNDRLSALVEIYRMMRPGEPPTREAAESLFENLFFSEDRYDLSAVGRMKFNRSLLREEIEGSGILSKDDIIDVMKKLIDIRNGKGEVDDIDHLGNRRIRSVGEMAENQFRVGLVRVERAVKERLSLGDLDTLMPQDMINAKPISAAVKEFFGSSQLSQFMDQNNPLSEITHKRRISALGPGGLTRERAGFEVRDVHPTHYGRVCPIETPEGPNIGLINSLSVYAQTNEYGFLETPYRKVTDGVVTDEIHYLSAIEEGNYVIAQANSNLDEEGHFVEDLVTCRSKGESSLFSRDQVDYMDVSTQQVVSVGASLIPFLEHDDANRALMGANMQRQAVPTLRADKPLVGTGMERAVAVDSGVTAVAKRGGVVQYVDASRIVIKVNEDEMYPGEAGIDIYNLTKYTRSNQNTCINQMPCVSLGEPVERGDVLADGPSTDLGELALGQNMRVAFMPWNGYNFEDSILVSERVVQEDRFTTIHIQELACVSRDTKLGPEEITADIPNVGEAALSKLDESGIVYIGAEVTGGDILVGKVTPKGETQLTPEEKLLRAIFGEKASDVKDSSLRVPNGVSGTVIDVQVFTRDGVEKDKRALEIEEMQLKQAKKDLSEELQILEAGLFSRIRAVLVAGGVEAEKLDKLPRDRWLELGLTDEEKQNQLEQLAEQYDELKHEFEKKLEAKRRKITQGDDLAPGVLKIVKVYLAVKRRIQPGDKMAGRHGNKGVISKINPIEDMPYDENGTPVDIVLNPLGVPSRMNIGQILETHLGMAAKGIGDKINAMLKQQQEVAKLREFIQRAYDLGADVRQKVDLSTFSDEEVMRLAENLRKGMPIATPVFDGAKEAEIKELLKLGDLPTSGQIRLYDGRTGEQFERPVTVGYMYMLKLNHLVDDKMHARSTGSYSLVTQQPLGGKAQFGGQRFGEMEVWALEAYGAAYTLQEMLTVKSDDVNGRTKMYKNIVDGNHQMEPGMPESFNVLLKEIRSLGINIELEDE

B1: E. coli RapA protein (enzyme, UniProt P60240 1-968, looked up)
chain: MPFTLGQRWISDTESELGLGTVVAVDARTVTLLFPSTGENRLYARSDSPVTRVMFNPGDTITSHDGWQMQVEEVKEENGLLTYIGTRLDTEESGVALREVFLDSKLVFSKPQDRLFAGQIDRMDRFALRYRARKYSSEQFRMPYSGLRGQRTSLIPHQLNIAHDVGRRHAPRVLLADEVGLGKTIEAGMILHQQLLSGAAERVLIIVPETLQHQWLVEMLRRFNLRFALFDDERYAEAQHDAYNPFDTEQLVICSLDFARRSKQRLEHLCEAEWDLLVVDEAHHLVWSEDAPSREYQAIEQLAEHVPGVLLLTATPEQLGMESHFARLRLLDPNRFHDFAQFVEEQKNYRPVADAVAMLLAGNKLSNDELNMLGEMIGEQDIEPLLQAANSDSEDAQSARQELVSMLMDRHGTSRVLFRNTRNGVKGFPKRELHTIKLPLPTQYQTAIKVSGIMGARKSAEDRARDMLYPERIYQEFEGDNATWWNFDPRVEWLMGYLTSHRSQKVLVICAKAATALQLEQVLREREGIRAAVFHEGMSIIERDRAAAWFAEEDTGAQVLLCSEIGSEGRNFQFASHMVMFDLPFNPDLLEQRIGRLDRIGQAHDIQIHVPYLEKTAQSVLVRWYHEGLDAFEHTCPTGRTIYDSVYNDLINYLASPDQTEGFDDLIKNCREQHEALKAQLEQGRDRLLEIHSNGGEKAQALAESIEEQDDDTNLIAFAMNLFDIIGINQDDRGDNMIVLTPSDHMLVPDFPGLSEDGITITFDREVALAREDAQFITWEHPLIRNGLDLILSGDTGSSTISLLKNKALPVGTLLVELIYVVEAQAPKQLQLNRFLPPTPVRMLLDKNGNNLAAQVEFETFNRQLNAVNRHTGSKLVNAVQQDVHAILQLGEAQIEKSARALIDAARNEADEKLSAELSRLEALRAVNPNIRDDELTAIESNRQQVMESLDQAGWRLDALRLIVVTHQ
notes: RapA, Swi2/Snf2 family ATPase of E. coli, full-length; NTD is residues 1-109; In the EC-RapA sample the complex was cross-linked with BS3; also called τ factor
With B1, the binding result with E. coli RNAP β subunit and with E. coli RNAP β′ subunit was “binds” throughout.
